Where a chain is given by its changes, count along the chain named. Names may count otherwise. Read-outs that look alike come from different tables or passages of the source.
B1: Latent TGFβ binding protein-4 (LTBP4S) C-terminal region, wild type (domain or fragment, human, UniProt Q8N2S1-2 1114-1557, looked up)
chain: RECYFDTAAPDACDNILARNVTWQECCCTVGEGWGSGCRIQQCPGTETAEYQSLCPHGRGYLAPSGDLSLRRDVDECQLFRDQVCKSGVCVNTAPGYSCYCSNGYYYHTQRLECIDNDECADEEPACEGGRCVNTVGSYHCTCEPPLVLDGSQRRCVSNESQSLDDNLGVCWQEVGADLVCSHPRLDRQATYTECCCLYGEAWGMDCALCPAQDSDDFEALCNVLRPPAYSPPRPGGFGLPYEYGPDLGPPYQGLPYGPELYPPPALPYDPYPPPPGPFARREAPYGAPRFDMPDFEDDGGPYGESEAPAPPGPGTRWPYRSRDTRRSFPEPEEPPEGGSYAGSLAEPYEELEAEECGILDGCTNGRCVRVPEGFTCRCFDGYRLDMTRMACVDINECDEAEAASPLCVNARCLNTDGSFRCICRPGFAPTHQPHHCAPARPRA
notes: numbers count on: LTBP4S; N-glycosylated (PNGase-F shift); also called CWT; C WT
B2: Latent TGFβ binding protein-4 (LTBP4S) C-terminal region, ARCL1C mutant C1286S (domain or fragment)
chain: B1 chain with C143S
B3: Latent TGFβ binding protein-4 (LTBP4S) N-terminal region, wild type (domain or fragment, human, UniProt Q8N2S1-2 29-394, looked up)
chain: GERLRVRFTPVVCGLRCVHGPTGSRCTPTCAPRNATSVDSGAPGGAAPGGPGFRAFLCPLICHNGGVCVKPDRCLCPPDFAGKFCQLHSSGARPPAPAVPGLTRSVYTMPLANHRDDEHGVASMVSVHVEHPQEASVVVHQVERVSGPWEEADAEAVARAEAAARAEAAAPYTVLAQSAPREDGYSDASGFGYCFRELRGGECASPLPGLRTQEVCCRGAGLAWGVHDCQLCSERLGNSERVSAPDGPCPTGFERVNGSCEDVDECATGGRCQHGECANTRGGYTCVCPDGFLLDSSRSSCISQHVISEAKGPCFRVLRDGGCSLPILRNITKQICCCSRVGKAWGRGCQLCPPFGSEGFREICPA
notes: numbers count on: LTBP4S; N-glycosylated (PNGase-F shift); Biotinylated when immobilised on streptavidin biosensors in the fibronectin BLI experiment (general BLI methods); also called NWT; LTBP4 N-terminal region

Experiments:
[1] = target: T1, Fibulin-4, full length (UniProt O95967 24-443, biotin (biotinylated ligand on streptavidin biosensors, position not stated)); assay: BLI; OctetRED96, immobilised full-length fibulin-4, NWT or C274G 1000-62.5 nM, 10 mM HEPES, 150 mM NaCl, pH 7.4, 0.005% Tween-20, 25°C; steady state analysis
T1 construct: full-length fibulin-4; source: expressed and purified as previously described (Choudhury et al., 2009)
T1 sequence (looked up): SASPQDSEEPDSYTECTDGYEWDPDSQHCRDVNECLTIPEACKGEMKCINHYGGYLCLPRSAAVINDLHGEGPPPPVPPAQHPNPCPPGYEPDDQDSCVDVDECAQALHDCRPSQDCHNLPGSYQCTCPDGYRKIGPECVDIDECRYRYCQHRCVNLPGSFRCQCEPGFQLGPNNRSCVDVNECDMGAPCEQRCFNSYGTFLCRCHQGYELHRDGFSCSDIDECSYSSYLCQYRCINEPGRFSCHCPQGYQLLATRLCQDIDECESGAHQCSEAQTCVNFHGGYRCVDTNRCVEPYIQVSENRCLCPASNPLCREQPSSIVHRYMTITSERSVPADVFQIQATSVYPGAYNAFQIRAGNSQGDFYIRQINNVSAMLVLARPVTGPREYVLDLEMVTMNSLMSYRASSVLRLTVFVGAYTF

[2] = target: Latent TGFβ binding protein-4 (LTBP4S) C-terminal region, ARCL1C mutant C1286S (human); assay: SPR; ProteOn, LTBP4 C-terminal constructs amine-coupled on GLC chip, fibrillin-1 PF3 injected 100-3.1 nM, 10 mM HEPES, 150 mM NaCl, pH 7.4, 0.005% Tween-20, 25°C; steady state (equilibrium) analysis
[3] = target: T2, Tropoelastin (SHELdelta26A) (biotin where immobilised on streptavidin biosensors (position not given)); assay: BLI
T2 chain: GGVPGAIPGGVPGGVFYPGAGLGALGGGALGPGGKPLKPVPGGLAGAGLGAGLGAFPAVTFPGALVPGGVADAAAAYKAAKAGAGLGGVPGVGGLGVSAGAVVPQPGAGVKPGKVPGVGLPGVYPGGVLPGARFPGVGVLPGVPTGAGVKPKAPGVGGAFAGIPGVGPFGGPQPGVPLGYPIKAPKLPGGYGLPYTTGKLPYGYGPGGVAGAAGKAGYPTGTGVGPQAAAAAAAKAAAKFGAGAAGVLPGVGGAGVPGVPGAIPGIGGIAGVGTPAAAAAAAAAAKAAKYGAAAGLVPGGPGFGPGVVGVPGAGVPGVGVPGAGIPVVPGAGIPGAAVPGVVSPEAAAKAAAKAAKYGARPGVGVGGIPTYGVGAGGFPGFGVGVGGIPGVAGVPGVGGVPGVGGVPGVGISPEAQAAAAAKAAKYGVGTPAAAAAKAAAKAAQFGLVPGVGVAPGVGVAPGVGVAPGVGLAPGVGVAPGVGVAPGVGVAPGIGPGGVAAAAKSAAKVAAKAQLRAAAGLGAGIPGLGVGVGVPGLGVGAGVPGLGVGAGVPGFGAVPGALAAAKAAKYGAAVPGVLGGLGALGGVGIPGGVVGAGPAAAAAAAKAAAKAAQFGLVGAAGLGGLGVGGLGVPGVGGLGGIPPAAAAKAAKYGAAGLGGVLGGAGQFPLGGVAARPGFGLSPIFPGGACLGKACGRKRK

[4] = target: Tropoelastin (SHELdelta26A); assay: BLI; OctetRED96, biotinylated tropoelastin on streptavidin biosensors, LTBP4 C-terminal constructs 375-23.4 nM, 10 mM HEPES, 150 mM NaCl, pH 7.4, 0.005% Tween-20, 25°C; steady state analysis
[5] = target: T3, Fibrillin-1 PF3 fragment (UniProt P35555 45-722); assay: SPR; ProteOn, LTBP4 C-terminal constructs amine-coupled on GLC chip, fibrillin-1 PF3 injected 100-3.1 nM, 10 mM HEPES, 150 mM NaCl, pH 7.4, 0.005% Tween-20, 25°C; steady state (equilibrium) analysis; settings: both partners purified
T3 construct: signal peptide in the construct; fibrillin-1 PF3 fragment, residues 1-722 (Rock et al., 2004); also called N-terminal region of fibrillin-1; source: purified
T3 sequence (P35555 45-722): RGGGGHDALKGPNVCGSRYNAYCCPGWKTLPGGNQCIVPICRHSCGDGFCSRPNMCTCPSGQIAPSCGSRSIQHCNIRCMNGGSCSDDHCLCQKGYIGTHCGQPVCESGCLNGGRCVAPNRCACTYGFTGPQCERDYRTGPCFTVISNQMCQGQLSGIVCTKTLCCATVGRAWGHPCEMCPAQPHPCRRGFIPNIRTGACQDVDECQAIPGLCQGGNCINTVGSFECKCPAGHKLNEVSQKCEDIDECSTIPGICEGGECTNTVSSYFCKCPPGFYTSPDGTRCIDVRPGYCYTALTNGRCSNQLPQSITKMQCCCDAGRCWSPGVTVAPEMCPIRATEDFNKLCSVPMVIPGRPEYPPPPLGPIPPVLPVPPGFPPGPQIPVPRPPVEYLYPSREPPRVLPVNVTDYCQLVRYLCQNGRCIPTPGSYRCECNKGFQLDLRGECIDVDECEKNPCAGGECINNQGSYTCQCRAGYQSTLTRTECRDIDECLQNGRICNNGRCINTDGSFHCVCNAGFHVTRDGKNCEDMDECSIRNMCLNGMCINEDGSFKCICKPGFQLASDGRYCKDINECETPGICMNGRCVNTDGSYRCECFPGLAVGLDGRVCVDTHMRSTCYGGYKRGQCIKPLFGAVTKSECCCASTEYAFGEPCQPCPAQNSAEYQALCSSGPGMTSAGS

Molecule	Kd [3] [nM]	Kd [4] [nM]	also measured
Latent TGFβ binding protein-4 (LTBP4S) N-terminal region, ARCL1C mutant C274G (domain or fragment)			Kd [1]: 177 nM
Fibrillin-1 PF3 fragment (from UniProt P35555 45-722) (domain or fragment)			Kd [2]: 12.2 nM
B1	6.4	57	Kd [5]: 15.8 nM
B2	65	151	
B3			Kd ([1]; both partners purified): 1290 nM
